From US20200079833A1 (AstraZeneca / MedImmune, published 2020)
Starred links: 1 amine or outer side, 2 acyl side, 3 side chain; linkers in the order of their positions; H or OH if unused. Non-standard residues stand in square brackets, D forms with d. Groups on a side chain read outwards from the residue. Primed or numbered codes have the meaning given here. No end group written: not given here. *: point of attachment. Dodecylbenzoate = dodecylbenzoyl lipid group; γGlu = O=C(O)[C@H](CCC(=O)[*:2])N[*:1]; αMeF = C[C@](N)(Cc1ccccc1)C(=O)O; αMeK = C[C@](N)(CCCCN)C(=O)O; Lauroyl = CCCCCCCCCCCC(=O)*; αMeS = C[C@](N)(CO)C(=O)O; PEG2′ = not defined here; Aib = CC(C)(N)C(=O)O; Ahx = NCCCCCC(=O)O

B1: SEQ ID NO 168 (peptide)
peptide: H[Aib]EGS[αMeF]TSDV[αMeS]S[αMeF]LEGEAA[αMeK]E[αMeF]IA[αMeF]VVK([Ahx-Ahx-Lauroyl])GG-NH2
modifications: N-terminus assumed
SMILES: CCCCCCCCCCCC(=O)NCCCCCC(=O)NCCCCCC(=O)NCCCC[C@H](NC(=O)[C@@H](NC(=O)[C@@H](NC(=O)[C@](C)(Cc1ccccc1)NC(=O)[C@H](C)NC(=O)[C@@H](NC(=O)[C@](C)(Cc1ccccc1)NC(=O)[C@H](CCC(=O)O)NC(=O)[C@](C)(CCCCN)NC(=O)[C@H](C)NC(=O)[C@H](C)NC(=O)[C@H](CCC(=O)O)NC(=O)CNC(=O)[C@H](CCC(=O)O)NC(=O)[C@H](CC(C)C)NC(=O)[C@](C)(Cc1ccccc1)NC(=O)[C@H](CO)NC(=O)[C@](C)(CO)NC(=O)[C@@H](NC(=O)[C@H](CC(=O)O)NC(=O)[C@H](CO)NC(=O)[C@@H](NC(=O)[C@](C)(Cc1ccccc1)NC(=O)[C@H](CO)NC(=O)CNC(=O)[C@H](CCC(=O)O)NC(=O)C(C)(C)NC(=O)[C@@H](N)Cc1c[nH]cn1)[C@@H](C)O)C(C)C)[C@@H](C)CC)C(C)C)C(C)C)C(=O)NCC(=O)NCC(N)=O
B2: SEQ ID NO 169 (peptide)
peptide: H[Aib]EGS[αMeF]TSDV[αMeS]S[αMeF]LEGEAA[αMeK]E[αMeF]IA[αMeF]VVK([Ahx-Ahx-Ahx-Lauroyl])GG-NH2
modifications: N-terminus assumed
SMILES: CCCCCCCCCCCC(=O)NCCCCCC(=O)NCCCCCC(=O)NCCCCCC(=O)NCCCC[C@H](NC(=O)[C@@H](NC(=O)[C@@H](NC(=O)[C@](C)(Cc1ccccc1)NC(=O)[C@H](C)NC(=O)[C@@H](NC(=O)[C@](C)(Cc1ccccc1)NC(=O)[C@H](CCC(=O)O)NC(=O)[C@](C)(CCCCN)NC(=O)[C@H](C)NC(=O)[C@H](C)NC(=O)[C@H](CCC(=O)O)NC(=O)CNC(=O)[C@H](CCC(=O)O)NC(=O)[C@H](CC(C)C)NC(=O)[C@](C)(Cc1ccccc1)NC(=O)[C@H](CO)NC(=O)[C@](C)(CO)NC(=O)[C@@H](NC(=O)[C@H](CC(=O)O)NC(=O)[C@H](CO)NC(=O)[C@@H](NC(=O)[C@](C)(Cc1ccccc1)NC(=O)[C@H](CO)NC(=O)CNC(=O)[C@H](CCC(=O)O)NC(=O)C(C)(C)NC(=O)[C@@H](N)Cc1c[nH]cn1)[C@@H](C)O)C(C)C)[C@@H](C)CC)C(C)C)C(C)C)C(=O)NCC(=O)NCC(N)=O

target: T1, glucose-dependent insulinotropic peptide (gastric inhibitory polypeptide) receptor (GIPR) (human, UniProt P48546 22-466); experiment: cell-based or functional assay
T1 sequence (looked up): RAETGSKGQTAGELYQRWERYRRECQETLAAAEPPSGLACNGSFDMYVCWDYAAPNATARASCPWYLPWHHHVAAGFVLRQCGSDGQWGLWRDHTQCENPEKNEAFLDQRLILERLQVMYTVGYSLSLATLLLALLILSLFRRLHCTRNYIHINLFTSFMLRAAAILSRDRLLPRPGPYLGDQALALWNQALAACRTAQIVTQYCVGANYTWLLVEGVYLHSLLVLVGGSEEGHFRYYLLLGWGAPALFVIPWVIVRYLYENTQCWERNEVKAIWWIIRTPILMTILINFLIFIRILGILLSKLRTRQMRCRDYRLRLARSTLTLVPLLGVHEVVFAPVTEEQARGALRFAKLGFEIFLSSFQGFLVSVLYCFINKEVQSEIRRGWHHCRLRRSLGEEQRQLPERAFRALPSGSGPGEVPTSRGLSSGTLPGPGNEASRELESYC

Row | Binder | Primary assay EC50 (cAMP), GIP-R, first run | Primary assay EC50 (cAMP), GIP-R, second run
1 | B1 | 28 nM | 28 nM
2 | B2 | 27 nM | 27 nM
3 | H[Aib]EGS[αMeF]TSDV[αMeS]S[αMeF]LEGEAA[αMeK]E[αMeF]IA[αMeF]VVK([PEG2′-Lauroyl])GG-NH2 [SEQ ID NO 170] | 28 nM | 28 nM
4 | H[Aib]EGS[αMeF]TSDV[αMeS]S[αMeF]LEGEAA[αMeK]E[αMeF]IA[αMeF]VVK([PEG2′-PEG2′-Lauroyl])GG-NH2 [SEQ ID NO 171] | 27 nM | 27 nM
5 | H[Aib]EGS[αMeF]TSDV[αMeS]S[αMeF]LEGEAA[αMeK]E[αMeF]IA[αMeF]VVK([PEG2′-PEG2′-PEG2′-Lauroyl])GG-NH2 [SEQ ID NO 172] | 26 nM | 26 nM
6 | H[Aib]EGS[αMeF]TSDV[αMeS]S[αMeF]LEGEAA[αMeK]E[αMeF]IA[αMeF]VVK([γGlu-Dodecylbenzoate])GG-NH2 [SEQ ID NO 173] | 27 nM | 27 nM
7 | H[Aib]EGS[αMeF]TSDV[αMeS]S[αMeF]LEGEAA[αMeK]E[αMeF]IA[αMeF]VVK([γGlu-γGlu-Dodecylbenzoate])GG-NH2 [SEQ ID NO 174] | 26 nM | 26 nM
8 | H[Aib]EGS[αMeF]TSDV[αMeS]S[αMeF]LEGEAA[αMeK]E[αMeF]IA[αMeF]VVK([γGlu-γGlu-γGlu-Dodecylbenzoate])GG-NH2 [SEQ ID NO 175] | 26 nM | 26 nM
9 | H[Aib]EGS[αMeF]TSDV[αMeS]S[αMeF]LEGEAA[αMeK]E[αMeF]IA[αMeF]VVK([Ahx-Dodecylbenzoate])GG-NH2 [SEQ ID NO 176] | 27 nM | 27 nM
10 | H[Aib]EGS[αMeF]TSDV[αMeS]S[αMeF]LEGEAA[αMeK]E[αMeF]IA[αMeF]VVK([Ahx-Ahx-Dodecylbenzoate])GG-NH2 [SEQ ID NO 177] | 27 nM | 27 nM
11 | H[Aib]EGS[αMeF]TSDV[αMeS]S[αMeF]LEGEAA[αMeK]E[αMeF]IA[αMeF]VVK([Ahx-Ahx-Ahx-Dodecylbenzoate])GG-NH2 [SEQ ID NO 178] | 26 nM | 26 nM
12 | H[Aib]EGS[αMeF]TSDV[αMeS]S[αMeF]LEGEAA[αMeK]E[αMeF]IA[αMeF]VVK([PEG2′-Dodecylbenzoate])GG-NH2 [SEQ ID NO 179] | 27 nM | 27 nM
13 | H[Aib]EGS[αMeF]TSDV[αMeS]S[αMeF]LEGEAA[αMeK]E[αMeF]IA[αMeF]VVK([PEG2′-PEG2′-Dodecylbenzoate])GG-NH2 [SEQ ID NO 180] | 26 nM | 26 nM
14 | H[Aib]EGS[αMeF]TSDV[αMeS]S[αMeF]LEGEAA[αMeK]E[αMeF]IA[αMeF]VVK([PEG2′-PEG2′-PEG2′-Dodecylbenzoate])GG-NH2 [SEQ ID NO 181] | 25 nM | 25 nM

target: GLP-1 receptor (GLP-1R) (human, UniProt P43220 24-463); experiment: cell-based or functional assay

Row | Binder | Primary assay EC50 (cAMP), GLP-1R n1 | Primary assay EC50 (cAMP), GLP-1R n2 | Primary assay EC50 (cAMP), Mean pM GLP-1R
15 | B1 | 5.1 pM | 2.6 pM | 3.8 pM
16 | B2 | 3.4 pM | 1.7 pM | 2.6 pM
17 | H[Aib]EGS[αMeF]TSDV[αMeS]S[αMeF]LEGEAA[αMeK]E[αMeF]IA[αMeF]VVK([PEG2′-Lauroyl])GG-NH2 [SEQ ID NO 170] | 8 pM | 4.5 pM | 6.2 pM
18 | H[Aib]EGS[αMeF]TSDV[αMeS]S[αMeF]LEGEAA[αMeK]E[αMeF]IA[αMeF]VVK([PEG2′-PEG2′-Lauroyl])GG-NH2 [SEQ ID NO 171] | 2.5 pM | 1.2 pM | 1.9 pM
19 | H[Aib]EGS[αMeF]TSDV[αMeS]S[αMeF]LEGEAA[αMeK]E[αMeF]IA[αMeF]VVK([PEG2′-PEG2′-PEG2′-Lauroyl])GG-NH2 [SEQ ID NO 172] | 1.5 pM | 0.72 pM | 1.1 pM
20 | H[Aib]EGS[αMeF]TSDV[αMeS]S[αMeF]LEGEAA[αMeK]E[αMeF]IA[αMeF]VVK([γGlu-Dodecylbenzoate])GG-NH2 [SEQ ID NO 173] | 21 pM | 9.2 pM | 15.1 pM
21 | H[Aib]EGS[αMeF]TSDV[αMeS]S[αMeF]LEGEAA[αMeK]E[αMeF]IA[αMeF]VVK([γGlu-γGlu-Dodecylbenzoate])GG-NH2 [SEQ ID NO 174] | 22 pM | 11 pM | 16.3 pM
22 | H[Aib]EGS[αMeF]TSDV[αMeS]S[αMeF]LEGEAA[αMeK]E[αMeF]IA[αMeF]VVK([γGlu-γGlu-γGlu-Dodecylbenzoate])GG-NH2 [SEQ ID NO 175] | 23 pM | 12 pM | 17.4 pM
23 | H[Aib]EGS[αMeF]TSDV[αMeS]S[αMeF]LEGEAA[αMeK]E[αMeF]IA[αMeF]VVK([Ahx-Dodecylbenzoate])GG-NH2 [SEQ ID NO 176] | 23 pM | 9.6 pM | 16 pM
24 | H[Aib]EGS[αMeF]TSDV[αMeS]S[αMeF]LEGEAA[αMeK]E[αMeF]IA[αMeF]VVK([Ahx-Ahx-Dodecylbenzoate])GG-NH2 [SEQ ID NO 177] | 6.4 pM | 3 pM | 4.7 pM
25 | H[Aib]EGS[αMeF]TSDV[αMeS]S[αMeF]LEGEAA[αMeK]E[αMeF]IA[αMeF]VVK([Ahx-Ahx-Ahx-Dodecylbenzoate])GG-NH2 [SEQ ID NO 178] | 5 pM | 2.3 pM | 3.6 pM
26 | H[Aib]EGS[αMeF]TSDV[αMeS]S[αMeF]LEGEAA[αMeK]E[αMeF]IA[αMeF]VVK([PEG2′-Dodecylbenzoate])GG-NH2 [SEQ ID NO 179] | 11 pM | 4.4 pM | 7.9 pM
27 | H[Aib]EGS[αMeF]TSDV[αMeS]S[αMeF]LEGEAA[αMeK]E[αMeF]IA[αMeF]VVK([PEG2′-PEG2′-Dodecylbenzoate])GG-NH2 [SEQ ID NO 180] | 3.2 pM | 1.1 pM | 2.2 pM
28 | H[Aib]EGS[αMeF]TSDV[αMeS]S[αMeF]LEGEAA[αMeK]E[αMeF]IA[αMeF]VVK([PEG2′-PEG2′-PEG2′-Dodecylbenzoate])GG-NH2 [SEQ ID NO 181] | 2.1 pM | 0.83 pM | 1.5 pM

target: glucagon receptor (GCGR) (human, UniProt P47871 26-477); experiment: cell-based or functional assay
Sequence (P47871 26-477): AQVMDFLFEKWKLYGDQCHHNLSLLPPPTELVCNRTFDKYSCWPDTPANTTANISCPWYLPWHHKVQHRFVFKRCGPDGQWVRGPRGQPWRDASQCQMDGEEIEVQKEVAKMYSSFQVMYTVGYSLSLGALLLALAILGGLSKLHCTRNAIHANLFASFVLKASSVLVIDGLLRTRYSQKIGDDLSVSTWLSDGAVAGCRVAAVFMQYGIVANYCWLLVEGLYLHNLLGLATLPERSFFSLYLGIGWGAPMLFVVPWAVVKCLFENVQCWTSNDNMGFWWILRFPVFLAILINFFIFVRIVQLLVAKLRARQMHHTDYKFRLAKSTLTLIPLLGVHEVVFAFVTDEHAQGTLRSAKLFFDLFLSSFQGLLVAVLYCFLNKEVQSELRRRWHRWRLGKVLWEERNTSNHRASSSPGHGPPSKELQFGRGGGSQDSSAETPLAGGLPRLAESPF

Row | Binder | Primary assay EC50 (cAMP), Gluc-R, first run | Primary assay EC50 (cAMP), Gluc-R, second run
29 | B1 | 28 nM | 28 nM
30 | B2 | 27 nM | 27 nM
31 | H[Aib]EGS[αMeF]TSDV[αMeS]S[αMeF]LEGEAA[αMeK]E[αMeF]IA[αMeF]VVK([PEG2′-Lauroyl])GG-NH2 [SEQ ID NO 170] | 28 nM | 28 nM
32 | H[Aib]EGS[αMeF]TSDV[αMeS]S[αMeF]LEGEAA[αMeK]E[αMeF]IA[αMeF]VVK([PEG2′-PEG2′-Lauroyl])GG-NH2 [SEQ ID NO 171] | 27 nM | 27 nM
33 | H[Aib]EGS[αMeF]TSDV[αMeS]S[αMeF]LEGEAA[αMeK]E[αMeF]IA[αMeF]VVK([PEG2′-PEG2′-PEG2′-Lauroyl])GG-NH2 [SEQ ID NO 172] | 26 nM | 26 nM
34 | H[Aib]EGS[αMeF]TSDV[αMeS]S[αMeF]LEGEAA[αMeK]E[αMeF]IA[αMeF]VVK([γGlu-Dodecylbenzoate])GG-NH2 [SEQ ID NO 173] | 27 nM | 27 nM
35 | H[Aib]EGS[αMeF]TSDV[αMeS]S[αMeF]LEGEAA[αMeK]E[αMeF]IA[αMeF]VVK([γGlu-γGlu-Dodecylbenzoate])GG-NH2 [SEQ ID NO 174] | 26 nM | 26 nM
36 | H[Aib]EGS[αMeF]TSDV[αMeS]S[αMeF]LEGEAA[αMeK]E[αMeF]IA[αMeF]VVK([γGlu-γGlu-γGlu-Dodecylbenzoate])GG-NH2 [SEQ ID NO 175] | 26 nM | 26 nM
37 | H[Aib]EGS[αMeF]TSDV[αMeS]S[αMeF]LEGEAA[αMeK]E[αMeF]IA[αMeF]VVK([Ahx-Dodecylbenzoate])GG-NH2 [SEQ ID NO 176] | 27 nM | 27 nM
38 | H[Aib]EGS[αMeF]TSDV[αMeS]S[αMeF]LEGEAA[αMeK]E[αMeF]IA[αMeF]VVK([Ahx-Ahx-Dodecylbenzoate])GG-NH2 [SEQ ID NO 177] | 27 nM | 27 nM
39 | H[Aib]EGS[αMeF]TSDV[αMeS]S[αMeF]LEGEAA[αMeK]E[αMeF]IA[αMeF]VVK([Ahx-Ahx-Ahx-Dodecylbenzoate])GG-NH2 [SEQ ID NO 178] | 26 nM | 26 nM
40 | H[Aib]EGS[αMeF]TSDV[αMeS]S[αMeF]LEGEAA[αMeK]E[αMeF]IA[αMeF]VVK([PEG2′-Dodecylbenzoate])GG-NH2 [SEQ ID NO 179] | 27 nM | 27 nM
41 | H[Aib]EGS[αMeF]TSDV[αMeS]S[αMeF]LEGEAA[αMeK]E[αMeF]IA[αMeF]VVK([PEG2′-PEG2′-Dodecylbenzoate])GG-NH2 [SEQ ID NO 180] | 26 nM | 26 nM
42 | H[Aib]EGS[αMeF]TSDV[αMeS]S[αMeF]LEGEAA[αMeK]E[αMeF]IA[αMeF]VVK([PEG2′-PEG2′-PEG2′-Dodecylbenzoate])GG-NH2 [SEQ ID NO 181] | 25 nM | 25 nM
